{"source": "patent US20240166738A1", "about": "(Alector, published 2024)", "binders": {"B1": {"name": "TM-31 (antibody, V domains shown)", "VH": "QVQLQQSGAELAKPGASVKVSCKASGYTFISYWMNWVKQRPGQGLEWIGYINPTSGYTRYNQKFKDKATLTADKSSSTAYMQLSSLTYEDSAVYYCARSPPTVVLIGYFDYWGQGTTLTVSS", "VL": "DIKMTQSPSSMYASLGERVTFTCKASQDINSYLSWFQQKPGKSPKTLIYRGNGLVDGVPSRFSGSGSGQDYSLTISSLEYEDMGIYYCLQYDEFPFTFASGTKLEIK", "notes": "mouse hybridoma mAb"}, "B2": {"name": "TM-66 (antibody, V domains shown)", "VH": "EVMLVESGGALVEPGGSLKLSCAASGITFSNYAMSWIRQTPEKRLEWVATIGSVGSYTYYPDSVKGRFTISRDNARNTLYLQMSSLRSEDTAMYYCARQEGSSHFDYWGQGTTLTVSS", "VL": "DVVVTQTPPSLPVSFGDQVSISCRSSQSLVNSYGKTFLSWYLHKPGQSPQLLIYGISNRFSGVPDRFSGSGSGTVFTLKISTIKPEDLGMYYCLQGTHPPLTFGAGTKLEMK", "notes": "mouse hybridoma mAb"}, "B3": {"name": "TM-6 (antibody, V domains shown)", "VH": "QVQLQQSGAELVKPGASVKLSCKASGYTFTEYTIHWVKQRSGQGLEWIGWFYPGSTYIDYNEKFKDKATLTADKSSSTVYLELSRLTSEDSAVYFCARHEEDYSNWFPFWGQGTLVTVSA", "VL": "DIQMSQSSSYLSVSLGGRVTITCKASDHINNWLAWYQQKPGNAPRLLISGATSLETGVPSRFSGSGSGKDYTLSITSLQTEDVATYYCQQYWSSPYTFGGGTKLEIK", "notes": "mouse hybridoma mAb"}, "B4": {"name": "TM-85 (antibody, V domains shown)", "VH": "QVQLQQPGAELVRAGTSVKLSCKASGYTFIGYWMHWVKQRPGRGLEWIGRIDPYSGDTRYNEKFKNKATLTVDKPSSTAYMQLSSLTSEDSAVYYCARYGLGHAMDYWGQGTSVTVSS", "VL": "DIAMSQSQKFMSTSVGDRVSVTCKASQNVGTNVAWYQQKPGQSPKALIYSASYRYSGVPDRFTGSGSGTDFTLTISNVQSEDLAEYFCQQYNSYPLTFGAGTKLEMK", "notes": "mouse hybridoma mAb"}, "B5": {"name": "TM-62 (antibody, V domains shown)", "VH": "QVQLQQPGTELVRPGSSVKLSCKAAGYTFTRYWMHWVKQRPIQGLEWIGNIDPSDSETQYNPKFKDKATLTVDRSSSTAYMHLSSLTSEDSAVYYCARLTTLDYAMDYWGQGTSVTVSS", "VL": "QIVLTQSPAIMSASPGEKVTISCSASSSVSYMYWYQQKAGSSPKPWIHRTSNLASGVPARFSGSGSGTSYSLTIRSMEAEDAATYYCQQYHSYPPTFGVGTKLELK", "notes": "mouse hybridoma mAb"}, "B6": {"name": "TM-27 (antibody, V domains shown)", "VH": "QVQLQQSGAELVRPGTSVKVSCKASGYALTNYLIEWVKQRPGQGLEWIGVINPGSGSTKYNEKFKGKATLTADKSSSTAYMQLSSLTSEDSAVYFCARIIYDHDWYFDVWGTGTTVTVSS", "VL": "B5 VL with V29I, A39P, H48Y, N52T, R75S, P95R, V99G, L105I", "notes": "mouse hybridoma mAb"}, "B7": {"name": "TM-49 (antibody, V domains shown)", "VH": "B5 VH with T9A, A25S, Y32F, E57Q, Q59H, P62Q, R74K, H82Q, T100I, L102V", "VL": "B5 VL with A39P, A59V, R75S, V99A", "notes": "mouse hybridoma mAb"}, "B8": {"name": "TM-75 (antibody, V domains shown)", "VH": "EVQLQQSGPELVKPGASVKMSCKASGYTFTSYVMHWVKQKPGQGLEWIGYINPYNDGTKYNEKFKGKATLTSDKSSSTAYMELSSLTSEDSAVYYCARGGWFPYAMDYWGQGTTVTVSS", "VL": "not shown", "notes": "mouse hybridoma mAb"}, "B9": {"name": "TM-81 (antibody, V domains shown)", "VH": "QVQLQQSGAELVKPGASVKLSCKASGYTFTSYWMHWVKQRPGQGLEWIGNIDPSDSEIHYNQKFKDKATLTVDKSSSTAYIQLSSLTSEDSAVYYCARSPAGQILDYWGQGTTVTVSS", "VL": "not shown", "notes": "mouse hybridoma mAb"}, "B10": {"name": "TM-56 (antibody, V domains shown)", "VH": "QVHLQQSGAELAKPGASVKLSCKASGYTFTSYWMHWVKQRPGQGLEWIGYINPSSGYSKYNQRFKDKATLTADKSSTTAYMHLSSLTYADSAVYYCTREGGSISDWYFDVWGTGTTVTVSS", "VL": "DIEMTQAAPSVPVTPGESVSISCRSSKSLLQNNGNTYLYWFLQRPGQPPQLLIYRMSNLASGVPDRFSGSGSGTAFTLRISRVEAEDVGVYYCMQHLEYPYTFGGGTKLEIK", "notes": "mouse hybridoma mAb"}, "B11": {"name": "TM-82 (antibody, V domains shown)", "VH": "QVQLQQSGAELVRPGTSVRVSCKASGYAFTNYLIEWIKQRPGQGLEWIGVINPGSGITDYSEKFKGKARLTADKSSSTAYMQLSSLTSDDSAVYFCTRSPFITTVVADYWGQGTTVTVSS", "VL": "DVVVTQTPLSLPVSFGDQVSISCRSSQSLANTYGNTYLSWYLHTPGQSPQLLIFGISNRFSGVPDRFSGSGSGTDFTLKISTIKPEDLGVYYCLQGTHPPRTFGGGTKLEMK"}, "B12": {"name": "TM-68 (antibody, V domains shown)", "VH": "EVQLQQSGAELVRPGASVKLSCTASGFNIKDDYMHWVRQRPEQGLEWIGWIDPENGDTEYASKFQGKATMTADTSSNTAYLHLSSLTSEDTAVYYCTKPQTATTCWGQGTLVTVSS", "VL": "DIVMTQAAFSNPVTLGTSVSISCSSSKSLLHSSGITYLYWYLQRPGQSPQLLIYRMSNLASGVPDRFSGSGSGTDFTLRISRVEAEDVGVYYCAQMLERPWTFGGGTKLEIK"}, "B13": {"name": "TM-44 (antibody, V domains shown)", "VH": "EVQLVESGGGLVKPGGSLKLSCAASGFTFSDYGMHWVRQAPEKGLEWVAYISSGSSTIYYADTVKGRFTISRDNAKNTLFLQMTSLRSEDTAMYYCARNYGSPYAMDYWGQGTSVTVSS", "VL": "not shown"}, "B14": {"name": "TM-70 (antibody, V domains shown)", "VH": "EVQLVESGGALVKPGGSLKLSCAASGFTFSNYAMSWVRQTPEKRLEWVATIGYGGSYSYYPDSVKGRFTISRDNAKYTLYLQMSGLRSEDTALYYCARQDSNYEGVWFAYWGQGTLVT", "VL": "not shown"}, "B15": {"name": "TM-12 (antibody, V domains shown)", "VH": "EVQLQQSGAELMRPGASVKLSCTASGFNIQDYYMYWVKQRPEQGLEWIGRIDPEDGDAEYAPKFQGKATMTADTSSNTAYLQLSSLTSEDTAVYYCSTRVIYDGYYRTMDCWGQGTSVTVSS", "VL": "DVLMTQIPLSLPVSLGDQASISCRSSQTIVHSNGNTYLEWYLKKPGQSPKLLIDKISNRFSGVPDRFSGSGSGTDFTLKISRVEAEDLGVYYCFQGSHVPYTFGGGTKLEIK"}}, "note": "Changes are numbered by the printed parent chain. For % Protection from CPE in this document: test concentration or dose not given here.", "data": [{"target": "T1, GST-TMEM106B (truncated, comprising amino acids 122-210 of SEQ ID NO:1) (human, UniProt Q9NUM4 122-210)", "T1 construct": "GST written first by the name only; also called truncated GST-TMEM106B fusion protein; GST-TMEM106B polypeptide fusion; not shown: GST fusion partner", "assay": "pre-mix epitope binning, antibody immobilized on chip array", "values": [{"binder": "B1", "binding result": "no binding (tested: 55 nM antigen (2 ug/mL))"}, {"binder": "B2", "binding result": "no binding (tested: 55 nM antigen (2 ug/mL))"}, {"binder": "B3", "binding result": "no binding (tested: 55 nM antigen (2 ug/mL))"}, {"binder": "B4", "binding result": "no binding (tested: 55 nM antigen (2 ug/mL))"}, {"binder": "B5", "binding result": "no binding (tested: 55 nM antigen (2 ug/mL))"}, {"binder": "B6", "binding result": "no binding (tested: 55 nM antigen (2 ug/mL))"}, {"binder": "B7", "binding result": "no binding (tested: 55 nM antigen (2 ug/mL))"}, {"binder": "B8", "binding result": "no binding (tested: 55 nM antigen (2 ug/mL))"}, {"binder": "B9", "binding result": "no binding (tested: 55 nM antigen (2 ug/mL))"}, {"binder": "B10", "binding result": "no binding (tested: 55 nM antigen (2 ug/mL))"}]}, {"target": "human TMEM106B (human, UniProt Q9NUM4 2-274)", "assay": "cell-based or functional assay", "units": {"% Protection from CPE": "%"}, "values": [{"binder": "B1", "% Protection from CPE": 7.7}, {"binder": "B2", "% Protection from CPE": 5.9}, {"binder": "B3", "% Protection from CPE": 4.4}, {"binder": "B11", "% Protection from CPE": 3.2}, {"binder": "B4", "% Protection from CPE": 5.2}, {"binder": "B5", "% Protection from CPE": 84.2}, {"binder": "B6", "% Protection from CPE": 5.2}, {"binder": "B7", "% Protection from CPE": 49.6}, {"binder": "B12", "% Protection from CPE": 3.5}, {"binder": "B13", "% Protection from CPE": 3.2}, {"binder": "B8", "% Protection from CPE": 5.1}, {"binder": "B14", "% Protection from CPE": 3.4}, {"binder": "B9", "% Protection from CPE": 4.6}, {"binder": "B10", "% Protection from CPE": 89.7}, {"binder": "B15", "% Protection from CPE": 95.9}]}]}
